Bridge positions count the residues as written; N and C are the ends. Square brackets hold non-standard residues; d marks the D form. R8 = C=CCCCCCC[C@@](C)(N)C(=O)O; S5 = C=CCCC[C@](C)(N)C(=O)O

Here are results for 4 molecules from patent US20190055291A1 (FONDATION THE ARK, published 2019).

Assay [1] deals with RSV fusion glycoprotein F (trimeric HR1 target) on recombinant GFP-expressing RSV virus (strain A2) (RSV (strain A2), UniProt P03420 26-574). The assay can be described thus: cell-based or functional assay.
Assay [2] has as its target RSV fusion glycoprotein F (trimeric HR1 target) on mCherry-expressing RSV virus (rHRSV-mCherry) (human RSV (rHRSV), strain ). As to the kind of experiment: cell-based or functional assay.

B1: 3ac (peptide)
peptide: EQSLXFIRXSDXLLHXV
modifications: X504, X508, X511 and X515 are (S)-2-(4-pentenyl)alanine (two staples); N-terminus acetylated; C-terminus amidated
As to B1, in assay [1], the “EC50, block of RSV-GFP infection of A549 cells (flow cytometry)” value (from here on “EC50, block”) came out at 15.3 µM.

B2: T118 (peptide)
peptide: FDASISQVNEKINQSLAFIRKSDELLHNVNAGKST
For B2, the “EC50 values [µM], rHRSV-mCherry inhibition assay in HEp-2 cells” value in assay [2] is 6.33 µM.

B3: 4e (peptide)
peptide: Ac-EKINQSL[R8]FIRKSD[S5]LLHNV-NH2
modifications: staple 8-15
Consider B3, for which, in assay [1], the “EC50, block” value was over 90 µM.

B4: T108 (peptide)
peptide: YDPLVFPSDEFDASISQVNEKINQSLAFIRKSDEL
For the molecule B4, in assay [1], the “EC50, block” value worked out at 20.9 µM.
